We go through one molecule from paper PMC12480839, “Selective agonists of KIR and NKG2A to evade missing self response of natural killer cells” (Scientific Reports, 2025).

Experiment [1] concerns the target T1, recombinant KIR2DL2 protein (flow cytometry binding assay) (UniProt P43627).
T1 construct: KIR2DL2
The experiment can be described thus: flow cytometry on cells; recombinant receptor proteins at 0.1 µM in autoMACS Running Buffer added to 1 × 10^4 K562 cells expressing the membrane-bound scFv, 4 °C, 90 min; detected with APC anti-human IgG Fc antibody; median fluorescence normalised to control K562 cells. The conditions noted are these: one partner purified. For orientation: In flow cytometry, cells or beads pass a laser one at a time.

For experiment [2], the target named is T2, recombinant KIR2DL3 protein (flow cytometry binding assay) (UniProt P43628).
T2 construct: KIR2DL3; In the functional rows the receptor was whole KIR2DL3*001 expressed on NK-92 cells
The description is as above. The conditions noted are these: one partner purified.

T2 sequence (P43628 22-245): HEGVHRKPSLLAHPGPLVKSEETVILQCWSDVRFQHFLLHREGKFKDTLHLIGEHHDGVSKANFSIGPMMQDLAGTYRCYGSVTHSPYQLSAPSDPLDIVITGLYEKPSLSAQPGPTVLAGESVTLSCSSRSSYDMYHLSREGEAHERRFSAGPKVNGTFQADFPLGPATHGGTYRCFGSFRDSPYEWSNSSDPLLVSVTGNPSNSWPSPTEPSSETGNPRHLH
T1 sequence (P43627 22-245): as the sequence (P43628 22-245) above, with P16R, Q35E, R148C, T200I, E216K counted along it

B1: membrane-bound KIR2DL2/3 agonist 61 scFv expressed on K562 cells (scFv, V domains shown)
VH: QVQLVQSGAEVKKPGSSVKVSCKASGGTFSSFAISWVRQAPGQGLEWMGGIIPIFGTANYAQKFQGRVTITADESTSTAYMELSSLRSEDTAVYYCARVSGTTGGYYYGMDVWGQGTLVTVSS
VL: AIRMTQSPSSVSASVGDRVTITCRASQGIGNWLAWYQQKPGRAPKLLISTASSLQSGVPSRFSGGGSGRGFTLTISSLQLEDFATYYCQQSYITPWTFGQGTKVEIK
notes: (G4S)3 linker between the two scFv chains; second variable domain of agonist 61; Made with a CD8 signal peptide; firefly luciferase follows across a T2A peptide; also called scFv 61; KIR2DL2/3-specific scFv; source: K562 cells, transduced, on the cell surface; not shown: truncated human CD8 (CD8 hinge), C-terminal, kept
As to B1, the binding result in experiment [1] and in experiment [2] was “binds” each time.
